# Measured values published in patent US20180125988.
# T1: AC1254 (CCD1-BSRS1-AE713)
# T1 chain: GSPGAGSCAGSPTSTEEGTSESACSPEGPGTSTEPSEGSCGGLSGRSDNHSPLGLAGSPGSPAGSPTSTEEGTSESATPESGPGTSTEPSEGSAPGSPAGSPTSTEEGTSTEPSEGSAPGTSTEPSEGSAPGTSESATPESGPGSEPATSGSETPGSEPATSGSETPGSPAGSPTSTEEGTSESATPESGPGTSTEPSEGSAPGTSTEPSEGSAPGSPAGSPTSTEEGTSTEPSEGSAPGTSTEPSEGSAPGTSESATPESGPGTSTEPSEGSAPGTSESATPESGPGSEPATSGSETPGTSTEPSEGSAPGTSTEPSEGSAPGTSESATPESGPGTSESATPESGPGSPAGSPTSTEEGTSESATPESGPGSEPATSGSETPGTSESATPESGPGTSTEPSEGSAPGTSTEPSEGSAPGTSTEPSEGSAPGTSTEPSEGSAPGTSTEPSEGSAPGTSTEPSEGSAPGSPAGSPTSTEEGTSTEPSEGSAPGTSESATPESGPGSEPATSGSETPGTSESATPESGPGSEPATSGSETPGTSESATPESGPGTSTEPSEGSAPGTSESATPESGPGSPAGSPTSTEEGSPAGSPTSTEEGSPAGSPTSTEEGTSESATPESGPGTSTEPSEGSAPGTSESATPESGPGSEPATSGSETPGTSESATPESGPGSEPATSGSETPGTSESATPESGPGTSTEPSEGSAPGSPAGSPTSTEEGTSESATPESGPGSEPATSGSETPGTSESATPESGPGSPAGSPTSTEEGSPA
# T2: XTEN_AE864
# T2 chain: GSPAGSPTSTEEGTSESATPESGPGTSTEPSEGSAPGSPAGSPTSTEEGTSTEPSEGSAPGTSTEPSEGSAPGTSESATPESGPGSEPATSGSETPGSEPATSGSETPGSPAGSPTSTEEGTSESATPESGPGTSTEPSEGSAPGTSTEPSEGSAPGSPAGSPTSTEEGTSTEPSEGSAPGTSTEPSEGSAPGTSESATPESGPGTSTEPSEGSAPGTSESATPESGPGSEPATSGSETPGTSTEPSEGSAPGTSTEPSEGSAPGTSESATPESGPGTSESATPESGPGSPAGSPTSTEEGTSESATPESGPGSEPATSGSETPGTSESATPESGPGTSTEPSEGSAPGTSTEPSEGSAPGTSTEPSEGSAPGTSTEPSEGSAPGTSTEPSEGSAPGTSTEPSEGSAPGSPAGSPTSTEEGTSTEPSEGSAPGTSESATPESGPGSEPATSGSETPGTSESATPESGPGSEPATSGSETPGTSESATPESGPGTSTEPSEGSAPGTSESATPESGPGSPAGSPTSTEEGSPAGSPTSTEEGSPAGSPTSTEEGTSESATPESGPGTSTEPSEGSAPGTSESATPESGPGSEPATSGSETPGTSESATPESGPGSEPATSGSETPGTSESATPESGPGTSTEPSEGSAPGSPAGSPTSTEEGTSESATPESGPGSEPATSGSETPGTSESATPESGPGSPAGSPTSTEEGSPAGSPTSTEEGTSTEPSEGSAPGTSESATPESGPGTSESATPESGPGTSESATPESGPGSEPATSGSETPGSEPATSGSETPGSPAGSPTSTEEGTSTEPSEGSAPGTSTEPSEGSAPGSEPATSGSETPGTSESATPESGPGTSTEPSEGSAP
# Assays:
# [1] = biological target: T1, AC1254 (CCD1-BSRS1-AE713)
# XTEN_AE864 = biological target: T2, XTEN_AE864
protein,measurement,setting,value
recombinant human MMP-7 (protein) YSLFPNSPKWTSKVVTYRIVSYTRDLPHITVDRLVSKALNMWGKEIPLHFRKVVWGTADIMIGFARGAHGDSYPFDGPGNTLAHAFAPGTGLGGDAHFDEDERWTDGSSLGINFLYAATHELGHSLGMGHSSDPNAVMYPTYGNGDPQNFKLSQDDIKGIQKLYGKRSNSRKK,"proteolytic cleavage at the PCM (SDS-PAGE, C4 RP-HPLC); enzyme:substrate 1:200, 2 h, 37 C",[1],"all proteases tested here cleaved the construct as intended, with varying degree of catalytic efficiency"
recombinant mouse MMP-9 (protein) FQTFKGLKWDHHNITYWIQNYSEDLPRDMIDDAFARAFAVWGEVAPLTFTRVYGPEADIVIQFGVAEHGDGYPFDGKDGLLAHAFPPGAGVQGDAHFDDDELWSLGKGVVIPTYYGNSNGAPCHFPFTFEGRSYSACTTDGRNDGTPWCSTTADYDKDGKFGFCPSERLYTEHGNGEGKPCVFPFIFEGRSYSACTTKGRSDGYRWCATTANYDQDKLYGFCPTRVDATVVGGNSAGELCVFPFVFLGKQYSSCTSDGRRDGRLWCATTSNFDTDKKWGFCPDQGYSLFLVAAHEFGHALGLDHSSVPEALMYPLYSYLEGFPLNKDDIDGIQYLYGRGSKPDPRPPATTTTEPQPTAPPTMCPTIPPTAYPTVGPTVGPTGAPSPGPTSSPSPGPTGAPSPGPTAPPTAGSSEASTESLSPADNPCNVDVFDAIAEIQGALHFFKDGWYWKFLNHRGSPLQGPFLTARTWPALPATLDSAFEDPQTKRVFFFSGRQMWVYTGKTVLGPRSLDKLGLGPEVTHVSGLLPRRLGKALLFSKGRVWRFDLKSQKVDPQSVIRVDKEFSGVPWNSHDIFQYQDKAYFCHGKFFWRVSFQNEVNKVDHEVNQVDDVGYVTYDLLQCP,"proteolytic cleavage at the PCM (SDS-PAGE, C4 RP-HPLC); enzyme:substrate 1:6711, 2 h, 37 C",[1],"all proteases tested here cleaved the construct as intended, with varying degree of catalytic efficiency"
recombinant human matriptase (protein) VVGGTDADEGEWPWQVSLHALGQGHICGASLISPNWLVSAAHCYIDDRGFRYSDPTQWTAFLGLHDQSQRSAPGVQERRLKRIISHPFFNDFTFDYDIALLELEKPAEYSSMVRPICLPDASHVFPAGKAIWVTGWGHTQYGGTGALILQKGEIRVINQTTCENLLPQQITPRMMCVGFLSGGVDSCQGDSGGPLSSVEADGRIFQAGVVSWGDGCAQRNKPGVYTRLPLFRDWIKENTGV,"proteolytic cleavage at the PCM (SDS-PAGE, C4 RP-HPLC); enzyme:substrate 1:12.5, 2 h, 37 C",[1],"all proteases tested here cleaved the construct as intended, with varying degree of catalytic efficiency"
human neutrophil elastase (protein) IVGGRRARPHAWPFMVSLQLRGGHFCGATLIAPNFVMSAAHCVANVNVRAVRVVLGAHNLSRREPTRQVFAVQRIFENGYDPVNLLNDIVILQLNGSATINANVQVAQLPAQGRRLGNGVQCLAMGWGLLGRNRGIASVLQELNVTVVTSLCRRSNVCTLVRGRQAGVCFGDSGSPLVCNGLIHGIASFVRGGCASGLYPDAFAPVAQFVNWIDSIIQ,"proteolytic degradation (SDS-PAGE), elastase:XTEN 1:100, 2 h, 37 C",XTEN_AE864,XTEN_AE864 was completely digested by neutrophil elastase at the 1:100 molar ratio
same,"proteolytic degradation (SDS-PAGE), elastase:XTEN 1:1000, 2 h, 37 C",XTEN_AE864,Partial degradation was observed for XTEN_AE864 when incubating with neutrophil elastase at the 1:1000 molar ratio
